Laboratory results as given in patent US20150098945A1 (Daiichi Sankyo, published 2015).

Biological target: T1, human ROBO3 (pCI-hROBO3-transfected HEK293 cells) (human, UniProt Q96MS0 21-1386)
T1 sequence: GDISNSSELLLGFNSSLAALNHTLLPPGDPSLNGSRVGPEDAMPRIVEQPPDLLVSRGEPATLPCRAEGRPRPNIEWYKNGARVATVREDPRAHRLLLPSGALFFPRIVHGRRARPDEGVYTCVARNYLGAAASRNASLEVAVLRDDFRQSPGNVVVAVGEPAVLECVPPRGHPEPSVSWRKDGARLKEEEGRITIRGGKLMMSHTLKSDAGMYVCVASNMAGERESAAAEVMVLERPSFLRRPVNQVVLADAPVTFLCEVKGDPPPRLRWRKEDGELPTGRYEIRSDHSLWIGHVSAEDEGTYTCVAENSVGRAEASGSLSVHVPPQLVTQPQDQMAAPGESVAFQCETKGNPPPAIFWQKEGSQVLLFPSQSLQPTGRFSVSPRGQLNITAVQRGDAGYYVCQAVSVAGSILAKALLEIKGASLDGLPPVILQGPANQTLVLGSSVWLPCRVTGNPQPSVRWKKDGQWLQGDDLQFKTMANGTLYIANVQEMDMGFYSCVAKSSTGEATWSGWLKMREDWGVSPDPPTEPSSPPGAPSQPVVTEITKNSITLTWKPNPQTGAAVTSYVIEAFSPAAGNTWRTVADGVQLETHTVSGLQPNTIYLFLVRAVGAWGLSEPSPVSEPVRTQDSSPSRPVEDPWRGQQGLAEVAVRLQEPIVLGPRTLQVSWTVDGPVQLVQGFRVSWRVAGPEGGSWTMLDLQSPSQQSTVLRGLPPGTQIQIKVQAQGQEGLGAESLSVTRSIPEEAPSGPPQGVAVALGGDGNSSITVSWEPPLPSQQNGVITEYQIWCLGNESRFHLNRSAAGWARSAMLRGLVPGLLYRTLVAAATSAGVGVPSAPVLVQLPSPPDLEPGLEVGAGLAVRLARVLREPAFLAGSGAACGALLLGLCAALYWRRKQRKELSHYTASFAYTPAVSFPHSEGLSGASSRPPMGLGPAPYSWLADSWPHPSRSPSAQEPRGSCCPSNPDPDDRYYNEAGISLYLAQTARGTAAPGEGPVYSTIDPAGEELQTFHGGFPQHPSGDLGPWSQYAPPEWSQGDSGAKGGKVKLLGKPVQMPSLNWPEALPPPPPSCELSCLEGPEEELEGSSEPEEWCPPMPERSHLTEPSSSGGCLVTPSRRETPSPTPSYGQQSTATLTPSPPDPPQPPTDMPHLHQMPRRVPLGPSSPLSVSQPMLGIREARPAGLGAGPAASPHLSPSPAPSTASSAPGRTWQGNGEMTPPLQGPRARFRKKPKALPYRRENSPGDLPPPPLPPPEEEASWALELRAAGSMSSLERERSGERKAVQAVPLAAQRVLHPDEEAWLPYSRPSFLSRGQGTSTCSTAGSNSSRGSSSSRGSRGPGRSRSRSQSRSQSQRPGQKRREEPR
Test: flow cytometry, HEK293 cells transfected with pCI-hROBO3, anti-mouse IgG FITC; control histogram IgG
Procedure: HEK293 cells were inoculated at a concentration of 1.2×10⁶ cells/dish or 1.5×10⁶ cells/dish to a 60-mm dish (manufactured by Corning Inc.) and cultured overnight in a DMEM medium containing 10% FBS at 37° C. under 5% CO₂ conditions. On the next day, the HEK293 cells were transfected with pCI-hROBO4, pCI-FLAG-hROBO1, pCI-hROBO2, or pCI-hROBO3 using FuGENE6 Transfection Reagent and further cultured overnight at 37° C. under 5% CO₂ conditions. On the next day, the expression vector-transfected cells were treated with TrypLE Express (manufactured by Life Technologies Corp.), washed with PBS containing 5% FBS, and then suspended in PBS containing 5% FBS. The obtained cell suspension was used in flow cytometry analysis.
Each cell suspension prepared in 4)-4-1 was centrifuged, and the supernatant was removed. […] Data was analyzed using Flowjo. The histogram of FITC fluorescence intensity was prepared. The antibody was determined to bind in a specific manner when the histogram of MAb1 was shifted to a stronger fluorescence intensity region compared with the histogram of the negative control Mouse IgG1 or Mouse IgG2a. […]

binding result: no binding (tested: 10 µg/mL)
B1: anti-ROBO4 mouse monoclonal antibody MAb1 (antibody, mouse IgG1, V domains shown)
VH: EVQLVESGGGLVKPGGSLKLSCAASGFTFSTYAMSWVRQTPEKRLEWVATISNGGTYTYYPDSVKGRFTISRDNAENTLYLQMSSLRSEDTAMYFCARLIYYDYLDYWGHGTTLTVSS
VL: DAVMTQTPLSLPVSLGDQASISCRSSQSLENSNGNTYLNWYFQKPGQSPQLLIYRVSNRFSGVLDRFSGSGSGTDFTLKISRVEAEDFGVYFCLQVTHVPWTFGGGTKLEIKR
notes: Mouse IgG1 (gamma1), kappa light chain, purified from hybridoma supernatant; also called parent antibody MAb1
